Changes are numbered by the printed parent chain.

The source of these data is US20190062438A1 (CSL, published 2019).

The target in this test is T1, soluble Homo sapiens CD131 comprising a C-terminal 6xHis tag (human, UniProt P32927 17-438).
T1 construct: truncated after Ser438, C-terminal 6xHis; also called shCD131; shβc
T1 sequence: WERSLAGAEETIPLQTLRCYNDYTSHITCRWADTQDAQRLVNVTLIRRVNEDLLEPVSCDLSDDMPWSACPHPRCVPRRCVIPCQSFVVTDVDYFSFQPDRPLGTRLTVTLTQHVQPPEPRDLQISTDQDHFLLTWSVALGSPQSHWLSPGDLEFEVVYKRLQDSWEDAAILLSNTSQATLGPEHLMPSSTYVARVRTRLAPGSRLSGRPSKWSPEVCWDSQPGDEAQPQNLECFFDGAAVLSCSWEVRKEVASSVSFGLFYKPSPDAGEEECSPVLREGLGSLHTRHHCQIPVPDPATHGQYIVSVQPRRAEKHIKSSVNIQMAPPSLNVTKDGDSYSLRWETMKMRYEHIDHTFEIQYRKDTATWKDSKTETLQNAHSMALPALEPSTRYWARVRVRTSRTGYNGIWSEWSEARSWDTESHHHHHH
The test can be described thus: SPR, Fab over captured shCD131. As to the method:
Binding kinetics were measured using SPR with a BIAcore™ A-100 instrument (GE Healthcare Life Sciences). An anti-C-terminal Hexa-His antibody (3H3) was immobilized on spots 1, 2, 4 and 5 of each flow cell of a CM-5 sensor chip (GE Healthcare Life Sciences) using amine-coupling chemistry (116). […] As shβc is a dimer, kinetics assays were performed with shβc captured on the sensor surface, and purified Fab injected as the analyte. Avidity effects were avoided by the use of Fab rather than whole IgG.
shCD131 was captured on spots 1 and 5 of each flow cell for 2 minutes at a concentration of 0.4 μg/ml. […] For some analysis purified Fab was injected over each flow cell for 3 minutes and dissociation was monitored for a further 10 minutes. Regeneration of the surface was performed after each cycle with a 40 second injection of 25 mM glycine, pH 2.0. The analysis was performed with Fabs at several concentrations between 100 and 0.31 nM, with each concentration analyzed twice and in random order. The analysis was performed at a flow rate of 30 μl/min in HBS-EP buffer (10 mM Hepes, 150 mM NaCl, 3 mM EDTA, 0.005% Tween 20, pH 7.4) at 37° C. Responses from spots 2 and 4 of each flow cell, (in which shβc was not captured, but otherwise treated identically), were subtracted from those of spots 1 and 5 respectively to produce reference subtracted data. Reference subtracted responses from a blank injection comprising buffer alone were subtracted from the resultant sensorgrams to produce double referenced data suitable for kinetic analysis. Double-referenced sensorgrams were fitted using non-linear regression to a model describing 1:1 kinetics, including a term for mass transport limitation. The Rₘₐₓ value was fitted locally to account for slight deviations in the level of sCD131 captured, with association rate (kₐ), dissociation rate (kd) and equilibrium dissociation constant (KD) fitted globally.
Background: In SPR one partner is held on a chip, and binding of the other changes the refractive index at the surface.

B1: 9A2-VR24.10 Fab (Fab, V domains shown)
VH: EVQLLESGGGLVQPGGSLRLSCAASGFTFPWYRVHWVRQAPGKGLEWVSSIHTGSQWTYYADSVKGRFTISRDNSKNTLYLQMNSLRAEDTAVYYCARFYDSFFDIWGQGTMVTVSS
VL: DIQMTQSPSSVSASVGDRVTITCRASQGISSWLAWYQQKPGKAPKLLIYAASSLQSGVPSRFSGSGSGTDFTLTISSLQPEDFATYYCQQANSFPITFGQGTRLEIKR
notes: recombinant Fab
Broadly, the Kd is the equilibrium constant for the complex coming apart. As usually defined, the koff is a measure of how fast the partners let go of each other. Higher therefore signals fast dissociation. A word on the kon: it is a measure of how fast the partners come together. A lower kon goes with slower complex formation. As for B1, the Kd was 0.372 nM, the koff worked out at 0.00055 s⁻¹ and the on-rate constant (kon) came out at 1.48e+06 M⁻¹ s⁻¹.

B2: 9A2-VR24.97 Fab (Fab, V domains shown)
VH: B1 VH with H52R, T53S, G54S, S55G, Q56G, W57F, T58P, A61S, D62L
VL: B1 VL
notes: recombinant Fab
With B2, the Kd was 0.16 nM, the koff worked out at 0.000524 s⁻¹ and the kon was determined as 3.2e+06 M⁻¹ s⁻¹.

B3: 9A2-VR24.122 Fab (Fab, V domains shown)
VH: B1 VH with H52R, T53S, G54S, S55G, Q56G, W57F, A61N, D62S, S63E
VL: B1 VL
notes: recombinant Fab
As to B3, the Kd was found to be 0.353 nM, the koff came out at 0.000897 s⁻¹ and the kon stood at 2.54e+06 M⁻¹ s⁻¹.

B4: 9A2-VR39.24 Fab (Fab, V domains shown)
VH: EVQLLESGGGLVQPGGSLRLSCAASGFTFHHFHVIWVRQAPGKGLEWVSSINGRGRVTYYADSVKGRFTISRDNSKNTLYLQMNSLRAEDTAVYYCARFYDSFFDIWGQGTMVTVSS
VL: B1 VL
notes: recombinant Fab
As for B4, the affinity, expressed as Kd, was 0.169 nM; the koff is 0.0005 s⁻¹; the kon is 2.96e+06 M⁻¹ s⁻¹.

B5: 9A2-VR24.57 Fab (Fab, V domains shown)
VH: B1 VH with H52R, T53S, G54S, S55G, Q56G, W57F, A61N, D62P, S63K, G66H
VL: B1 VL
notes: recombinant Fab
In turn, B5 had a Kd of 0.211 nM, an off-rate (koff) of 0.000841 s⁻¹ and a kon of 4e+06 M⁻¹ s⁻¹.

B6: 9A2-VR24.124 Fab (Fab, V domains shown)
VH: B1 VH with H52R, T53S, G54S, S55G, Q56G, W57F, A61T, D62P, K65R
VL: B1 VL
notes: recombinant Fab
As for B6, the affinity, expressed as Kd, was 0.25 nM; the koff worked out at 0.00076 s⁻¹; the kon is 2.9e+06 M⁻¹ s⁻¹.

B7: 9A2-VR24.44 Fab (Fab, V domains shown)
VH: B1 VH with H52R, T53S, G54S, S55G, Q56G, W57F, T58P, A61H, D62P
VL: B1 VL
notes: recombinant Fab
Consider B7, for which the Kd was 0.163 nM, the koff was found to be 0.000488 s⁻¹ and the kon turned out to be 3e+06 M⁻¹ s⁻¹.

B8: 9A2-VR39.02 Fab (Fab, V domains shown)
VH: B4 VH with H30Y, H31W, F32Y, V34M
VL: B1 VL
notes: recombinant Fab
As for B8, binding was characterised by a dissociation constant (Kd) of 0.0877 nM, the koff is 0.000341 s⁻¹ and the kon was found to be 3.89e+06 M⁻¹ s⁻¹.

B9: 9A2-VR39.17 Fab (Fab, V domains shown)
VH: B4 VH with H30P, H31F, F32Y, V34K, I35V
VL: B1 VL
notes: recombinant Fab
As to B9, the Kd amounted to 0.201 nM, the off-rate constant (koff) was 0.000566 s⁻¹ and the kon was found to be 2.81e+06 M⁻¹ s⁻¹.

B10: 9A2-VR24.110 Fab (Fab, V domains shown)
VH: B1 VH with H52R, T53S, G54S, S55G, Q56G, W57F, T58P, A61N, D62N, S63H
VL: B1 VL
notes: recombinant Fab
In the case of B10, binding was put at a Kd of 0.151 nM, the koff came out at 0.000475 s⁻¹ and the kon amounted to 3.15e+06 M⁻¹ s⁻¹.

B11: 9A2-VR39.04 Fab (Fab, V domains shown)
VH: B4 VH with H30N, H31W, H33Q, V34H
VL: B1 VL
notes: recombinant Fab
As to B11, binding was characterised by a dissociation constant (Kd) of 0.329 nM, the koff was found to be 0.00117 s⁻¹ and the kon was determined as 3.55e+06 M⁻¹ s⁻¹.

B12: 9A2-VR24.56 Fab (Fab, V domains shown)
VH: B1 VH with H52R, T53S, G54S, S55G, Q56G, W57F, A61N, D62P, S63A, K65R
VL: B1 VL
notes: recombinant Fab
B12 displayed a Kd of 0.353 nM, a koff of 0.000997 s⁻¹ and an on-rate (kon) of 2.82e+06 M⁻¹ s⁻¹.

B13: 9A2-VR24.98 Fab (Fab, V domains shown)
VH: EVQLLESGGGLVQPGGSLRLSCAASGFTFPWYRVHWVRQAPGKGLEWVSSIRSSGGFPHYNSVVKGRFTISRDNSKNTLYLQMNSLRAEDTAVYYCARFYDSFFDIWGQGTMVTVSS
VL: B1 VL
notes: recombinant Fab
As to B13, the Kd turned out to be 0.174 nM, the koff turned out to be 0.000559 s⁻¹ and the kon stood at 3.21e+06 M⁻¹ s⁻¹.

B14: 9A2-VR39.22 Fab (Fab, V domains shown)
VH: B4 VH with H30Q, H31W, F32Y
VL: B1 VL
notes: recombinant Fab
As for B14, binding was put at a Kd of 0.141 nM, the koff was found to be 0.000441 s⁻¹ and the kon was 3.13e+06 M⁻¹ s⁻¹.

B15: 9A2-VR24.91 Fab (Fab, V domains shown)
VH: B1 VH with G54H, S55R, W57V
VL: B1 VL
notes: recombinant Fab
Regarding B15, the Kd came out at 0.161 nM, the koff was found to be 0.000448 s⁻¹ and the kon was found to be 2.78e+06 M⁻¹ s⁻¹.

B16: 9A2-VR24.33 Fab (Fab, V domains shown)
VH: B13 VH with H59Y, S62H, V63K
VL: B1 VL
notes: recombinant Fab
B16: the Kd stood at 0.149 nM, the koff amounted to 0.000472 s⁻¹ and the kon came to 3.16e+06 M⁻¹ s⁻¹.

B17: 9A2-VR39.93 Fab (Fab, V domains shown)
VH: B4 VH with H30S, F32Y, V34M, I35L, A61N, D62P, S63A, V64W, G66K
VL: B1 VL
notes: recombinant Fab
For B17, the Kd worked out at 0.171 nM, the koff worked out at 0.00071 s⁻¹ and the kon stood at 4.15e+06 M⁻¹ s⁻¹.

B18: 9A2-VR24.84 Fab (Fab, V domains shown)
VH: B1 VH with G54H, S55R, Q56P
VL: B1 VL
notes: recombinant Fab
In the case of B18, the Kd turned out to be 0.106 nM, the koff worked out at 0.000418 s⁻¹ and the kon is 3.95e+06 M⁻¹ s⁻¹.

B19: 9A2-VR24.81 Fab (Fab, V domains shown)
VH: B1 VH with G54H, S55R, Q56N, W57Y
VL: B1 VL
notes: recombinant Fab
Consider B19, for which the Kd was 0.173 nM, the koff was 0.000492 s⁻¹ and the kon was found to be 2.85e+06 M⁻¹ s⁻¹.

B20: 9A2-VR39.109 Fab (Fab, V domains shown)
VH: B4 VH with H30M, H31W, F32Y, V34H
VL: B1 VL
notes: recombinant Fab
For the molecule B20, the dissociation constant Kd worked out at 0.098 nM, the koff amounted to 0.00033 s⁻¹ and the kon is 3.4e+06 M⁻¹ s⁻¹.

B21: 9A2-VR24.107 Fab (Fab, V domains shown)
VH: B13 VH with H59Y, S62P, V63F
VL: B1 VL
notes: recombinant Fab
The molecule B21 returned a Kd of 0.183 nM, a koff of 0.00053 s⁻¹ and a kon of 2.89e+06 M⁻¹ s⁻¹.

B22: 9A2-VR24.102 Fab (Fab, V domains shown)
VH: B13 VH with H59F, V63S
VL: B1 VL
notes: recombinant Fab
With B22, the Kd stood at 0.188 nM, the koff stood at 0.000556 s⁻¹ and the kon was found to be 2.95e+06 M⁻¹ s⁻¹.

B23: 9A2-VR39.01 Fab (Fab, V domains shown)
VH: B4 VH with H30F, H31W, V34H, I35V
VL: B1 VL
notes: recombinant Fab
Molecule B23 yielded a Kd of 0.102 nM, a koff of 0.00031 s⁻¹ and a kon of 3.04e+06 M⁻¹ s⁻¹.

B24: 9A2-VR24.27 Fab (Fab, V domains shown)
VH: B13 VH with H59Y, N61H, S62Q, V63K
VL: B1 VL
notes: recombinant Fab
In turn, B24 returned a Kd of 0.17 nM, a koff of 0.000527 s⁻¹ and a kon of 3.1e+06 M⁻¹ s⁻¹.

B25: 9A2-VR24.30 Fab (Fab, V domains shown)
VH: B13 VH with H59Y, S62R, V63R
VL: B1 VL
notes: recombinant Fab
In turn, B25 displayed a Kd of 0.122 nM, a koff of 0.000464 s⁻¹ and a kon of 3.8e+06 M⁻¹ s⁻¹.

B26: 9A2-VR24.55 Fab (Fab, V domains shown)
VH: B13 VH with P58T, H59Y, S62P, V63S, G66N
VL: B1 VL
notes: recombinant Fab
In the case of B26, the dissociation constant (Kd) is 0.369 nM, the koff was found to be 0.000942 s⁻¹ and the kon was found to be 2.55e+06 M⁻¹ s⁻¹.

B27: 9A2-VR24.111 Fab (Fab, V domains shown)
VH: B13 VH with H59M, S62P, V63H
VL: B1 VL
notes: recombinant Fab
With B27, the affinity, expressed as Kd, was 0.236 nM; the dissociation rate constant (koff) stood at 0.000637 s⁻¹; the kon came to 2.7e+06 M⁻¹ s⁻¹.
